T1: m-calpain (Rattus norvegicus, UniProt Q07009)
T1 construct: diminishing activity >1,000-fold compared to full-length m-calpain; His6 (C); made in house; host or cells: E. coli
T1 sequence (Q07009 1-700): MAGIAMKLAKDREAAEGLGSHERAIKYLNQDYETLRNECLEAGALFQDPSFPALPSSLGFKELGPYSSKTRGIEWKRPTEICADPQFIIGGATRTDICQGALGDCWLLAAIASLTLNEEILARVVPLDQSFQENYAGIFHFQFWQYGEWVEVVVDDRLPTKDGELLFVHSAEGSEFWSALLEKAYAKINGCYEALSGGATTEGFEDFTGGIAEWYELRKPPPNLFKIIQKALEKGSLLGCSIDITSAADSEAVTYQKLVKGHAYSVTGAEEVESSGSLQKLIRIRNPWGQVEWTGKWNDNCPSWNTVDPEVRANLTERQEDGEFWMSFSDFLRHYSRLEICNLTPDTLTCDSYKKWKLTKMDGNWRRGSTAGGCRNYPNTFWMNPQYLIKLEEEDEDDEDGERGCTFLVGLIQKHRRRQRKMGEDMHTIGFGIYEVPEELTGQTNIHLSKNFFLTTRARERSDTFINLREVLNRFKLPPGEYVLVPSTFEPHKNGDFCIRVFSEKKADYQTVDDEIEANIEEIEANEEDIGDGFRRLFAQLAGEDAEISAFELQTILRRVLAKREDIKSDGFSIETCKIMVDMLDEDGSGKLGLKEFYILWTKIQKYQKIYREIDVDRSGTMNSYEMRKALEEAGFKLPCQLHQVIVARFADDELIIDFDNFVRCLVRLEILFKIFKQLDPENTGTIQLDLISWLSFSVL
T1 sequence (Q64537 87-270 partner limits assumed): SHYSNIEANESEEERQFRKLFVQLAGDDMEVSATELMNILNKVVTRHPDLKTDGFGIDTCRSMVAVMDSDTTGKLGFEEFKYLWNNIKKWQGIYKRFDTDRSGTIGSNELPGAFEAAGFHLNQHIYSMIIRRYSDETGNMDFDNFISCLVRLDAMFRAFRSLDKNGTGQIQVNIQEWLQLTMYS

B1: calpastatin: 72 kDa endogenous calpain inhibitor with L domain and four 15-kDa inhibitory repeats (protein, listed as Rattus norvegicus)
chain: MESTLNKLSDKSGVNAALDDLIDTLGECEDTNKDDPPYTGPVVLDPMDSTYLEALGIKEGTIPPEYRKLLEKNEAITGPLPDSPKPMGIDHAIDALSSDFTCSSPTGKQTEKEKSTGESS

How the values were obtained:
[1] = test system: calpain; settings: human sequence; Betts & Anagli (2004); cited from earlier work
[2] = molecular target: T1, m-calpain; experiment: Calpastatin inhibition assay, hydrolysis by m-calpain; type: biochemical; settings: FIG. 7 legend; concerted binding to peripheral domains and active site
Description: Calpastatin Inhibition Assays. Hydrolysis assays by m-calpain (1 nM or 20 nM), m-calpain mutants (1 nM) and μI-II (1.25-2.5 μM) were performed in 100-μl volumes containing 50 mM HEPES (pH 7.5), 200 mM NaCl, 1 mM DTT, various concentrations of substrate (0-1.5mM SLY-MCA (Sigma) or 0-50 μg/ml BODIPY-casein (Invitrogen)) and increasing inhibitor concentrations: 0-50 nM wild-type or mutant full-length calpastatin, fragments AB and BC, 0-20 μM peptide B1 for m-calpain, and 0-750 μM peptide B1 for μI-II. Duplicates or triplicates were performed for each condition in 96-well plates using a Molecular Devices microplate reader.

[3] = test system: heterodimeric calpains; settings: Wendt, et al. (2004); cited from earlier work

Molecule	calpain inhibition when the intact 27-residue peptide is replaced by N- and C-terminal peptides [1]	inhibition of calpain [2]	affinity of inhibition of heterodimeric calpains [3]
Asp^163-Gly^174: N-terminal peptide of the 27-residue region B peptide, human sequence (Betts & Anagli 2004) (TLGGPEETEEEN; UniProt P20810 163-174, looked up, fragment)	abolished		
B1		low-nanomolar	nanomolar
